Experimental findings from US20240124576A1 (SHANGHAI JEMINCARE PHARMACEUTICAL, published 2024) are described below.

B1: Ab6, purified Siglec-15 binding protein in the form of IgG1 (antibody, V domains shown)
VH: EVQLLESGGGLVQPGGSLRLSCAASGFTFSSYAMSWVRQAPGKGLEWVSTIWGGGGSTYYADSVKGRFTISRDNSKNTLYLQMNSLRAEDTAVYYCAKAIGSSWYSDAFDLWGQGTMVTVSS
VL: DIQMTQSPSSVSASVGDRVTITCRASQDISSWLAWYQQKPGKAPKLLIYVASSLQSGVPSRFSGSGSGTDFTLTISSLQPEDFATYYCQQSYSIPYTFGQGTKLEIKR
notes: Expressed in ExpiCHO cells in the form of IgG1
B2: Ab2, purified Siglec-15 binding protein in the form of IgG1 (antibody, V domains shown)
VH: EVQLLESGGGLVQPGGSLRLSCAASGFTSSSYAMSWVRQAPGKGLEWVSTISGGGGSTYYADSVKGRFTISRDNSKNTLYLQMNSLRAEDTAVYYCAKAIGSSWYSDAFDLWGQGTMVTVSS
VL: DIQMTQSPSSVSASVGDRVTITCRASQDISSWLAWYQQKPGKAPKLLIYVASSLQSGVPSRFSGSGSGTDFTLTISSLQPEDFATYYCQQSYSIPYTFGQGTKLEIKR
notes: as for B1
B3: Ab3, purified Siglec-15 binding protein in the form of IgG1 (antibody, V domains shown)
VH: EVQLLESGGGLVQPGGSLRLSCAASGFTFSSYAMSWVRQAPGKGLEWVSTITGGGESTYYADSVKGRFTISRDNSKNTLYLQMNSLRAEDTAVYYCAKAIGSSWYSDAFDLWGQGTMVTVSS
VL: DIQMTQSPSSVSASVGDRVTITCRASQDISSWLAWYQQKPGKAPKLLIYVASSLQSGVPSRFSGSGSGTDFTLTISSLQPEDFATYYCQQSYSIPYTFGQGTKLEIKR
notes: as for B1
B4: Ab13, purified Siglec-15 binding protein in the form of IgG1 (antibody, V domains shown)
VH: EVQLLESGGGLVQPGGSLRLSCAASGFTFSSYAMSWVRQAPGKGLEWVSTITGGGESTYYADSVKGRFTISRDNSKNTLYLQMNSLRAEDTAVYYCAKAIGSSWYSDAFDLWGQGTMVTVSS
VL: DIQMTQSPSSVSASVGDRVTITCRASQDISSWLAWYQQKPGKAPKLLIYVASFEHRGVPSRFSGSGSGTDFTLTISSLQPEDFATYYCQQSYSIPYTFGQGTKLEIKR
notes: as for B1
B5: Ab5, purified Siglec-15 binding protein in the form of IgG1 (antibody, V domains shown)
VH: EVQLLESGGGLVQPGGSLRLSCAASGFTFSSYAMSWVRQAPGKGLEWVSTIYGGGGSTYYADSVKGRFTISRDNSKNTLYLQMNSLRAEDTAVYYCAKAIGSSWYSDAFDLWGQGTMVTVSS
VL: DIQMTQSPSSVSASVGDRVTITCRASQDISSWLAWYQQKPGKAPKLLIYVASSLQSGVPSRFSGSGSGTDFTLTISSLQPEDFATYYCQQSYSIPYTFGQGTKLEIKR
notes: as for B1
B6: Ab7, purified Siglec-15 binding protein in the form of IgG1 (antibody, V domains shown)
VH: EVQLLESGGGLVQPGGSLRLSCAASGFTFSSYAMSWVRQAPGKGLEWVSTISGGGVYTYYADSVKGRFTISRDNSKNTLYLQMNSLRAEDTAVYYCAKAIGSSWYSDAFDLWGQGTMVTVSS
VL: DIQMTQSPSSVSASVGDRVTITCRASQDISSWLAWYQQKPGKAPKLLIYVASSLQSGVPSRFSGSGSGTDFTLTISSLQPEDFATYYCQQSYSIPYTFGQGTKLEIKR
notes: as for B1
B7: Ab0 parent sequence displayed on yeast in the form of Fab (Fab, V domains shown)
VH: EVQLLESGGGLVQPGGSLRLSCAASGFTFSSYAMSWVRQAPGKGLEWVSTISGGGGSTYYADSVKGRFTISRDNSKNTLYLQMNSLRAEDTAVYYCAKAIGSSWYSDAFDLWGQGTMVTVSS
VL: DIQMTQSPSSVSASVGDRVTITCRASQDISSWLAWYQQKPGKAPKLLIYVASSLQSGVPSRFSGSGSGTDFTLTISSLQPEDFATYYCQQSYSIPYTFGQGTKLEIK
B8: Ab5 (clone YC33D1) displayed on yeast in the form of Fab (Fab, V domains shown)
VH: EVQLLESGGGLVQPGGSLRLSCAASGFTFSSYAMSWVRQAPGKGLEWVSTIYGGGGSTYYADSVKGRFTISRDNSKNTLYLQMNSLRAEDTAVYYCAKAIGSSWYSDAFDLWGQGTMVTVSS
VL: DIQMTQSPSSVSASVGDRVTITCRASQDISSWLAWYQQKPGKAPKLLIYVASSLQSGVPSRFSGSGSGTDFTLTISSLQPEDFATYYCQQSYSIPYTFGQGTKLEIK
B9: Ab7 (clone YC33D5) displayed on yeast in the form of Fab (Fab, V domains shown)
VH: EVQLLESGGGLVQPGGSLRLSCAASGFTFSSYAMSWVRQAPGKGLEWVSTISGGGVYTYYADSVKGRFTISRDNSKNTLYLQMNSLRAEDTAVYYCAKAIGSSWYSDAFDLWGQGTMVTVSS
VL: DIQMTQSPSSVSASVGDRVTITCRASQDISSWLAWYQQKPGKAPKLLIYVASSLQSGVPSRFSGSGSGTDFTLTISSLQPEDFATYYCQQSYSIPYTFGQGTKLEIK
B10: Ab6 (clone YC33G4) displayed on yeast in the form of Fab (Fab, V domains shown)
VH: EVQLLESGGGLVQPGGSLRLSCAASGFTFSSYAMSWVRQAPGKGLEWVSTIWGGGGSTYYADSVKGRFTISRDNSKNTLYLQMNSLRAEDTAVYYCAKAIGSSWYSDAFDLWGQGTMVTVSS
VL: DIQMTQSPSSVSASVGDRVTITCRASQDISSWLAWYQQKPGKAPKLLIYVASSLQSGVPSRFSGSGSGTDFTLTISSLQPEDFATYYCQQSYSIPYTFGQGTKLEIK
B11: Ab2 (clone YC32A6) displayed on yeast in the form of Fab (Fab, V domains shown)
VH: EVQLLESGGGLVQPGGSLRLSCAASGFTSSSYAMSWVRQAPGKGLEWVSTISGGGGSTYYADSVKGRFTISRDNSKNTLYLQMNSLRAEDTAVYYCAKAIGSSWYSDAFDLWGQGTMVTVSS
VL: DIQMTQSPSSVSASVGDRVTITCRASQDISSWLAWYQQKPGKAPKLLIYVASSLQSGVPSRFSGSGSGTDFTLTISSLQPEDFATYYCQQSYSIPYTFGQGTKLEIK
B12: Ab13 (clone YC45H4) displayed on yeast in the form of Fab (Fab, V domains shown)
VH: EVQLLESGGGLVQPGGSLRLSCAASGFTFSSYAMSWVRQAPGKGLEWVSTITGGGESTYYADSVKGRFTISRDNSKNTLYLQMNSLRAEDTAVYYCAKAIGSSWYSDAFDLWGQGTMVTVSS
VL: DIQMTQSPSSVSASVGDRVTITCRASQDISSWLAWYQQKPGKAPKLLIYVASFEHRGVPSRFSGSGSGTDFTLTISSLQPEDFATYYCQQSYSIPYTFGQGTKLEIK
B13: Ab9 (clone YC29B3) displayed on yeast in the form of Fab (Fab, V domains shown)
VH: EVQLLESGGGLVQPGGSLRLSCAASGFTFSSYAMSWVRQAPGKGLEWVSTISGGGGSTYYADSVKGRFTISRDNSKNTLYLQMNSLRAEDTAVYYCAKAIGSSWYSDAFDLWGQGTMVTVSS
VL: DIQMTQSPSSVSASVGDRVTITCRASQDISDWLAWYQQKPGKAPKLLIYVASSLQSGVPSRFSGSGSGTDFTLTISSLQPEDFATYYCQQSYSIPYTFGQGTKLEIK
B14: Ab3 (clone YC33B2) displayed on yeast in the form of Fab (Fab, V domains shown)
VH: EVQLLESGGGLVQPGGSLRLSCAASGFTFSSYAMSWVRQAPGKGLEWVSTITGGGESTYYADSVKGRFTISRDNSKNTLYLQMNSLRAEDTAVYYCAKAIGSSWYSDAFDLWGQGTMVTVSS
VL: DIQMTQSPSSVSASVGDRVTITCRASQDISSWLAWYQQKPGKAPKLLIYVASSLQSGVPSRFSGSGSGTDFTLTISSLQPEDFATYYCQQSYSIPYTFGQGTKLEIK

In one assay the target is T1, human Siglec-15 (Acro, Cat. No. SG5-H52H3) (human, UniProt Q6ZMC9 20-263).
T1 construct: Bought reagent used as the analyte in the Octet assay; also called antigen
T1 sequence (looked up): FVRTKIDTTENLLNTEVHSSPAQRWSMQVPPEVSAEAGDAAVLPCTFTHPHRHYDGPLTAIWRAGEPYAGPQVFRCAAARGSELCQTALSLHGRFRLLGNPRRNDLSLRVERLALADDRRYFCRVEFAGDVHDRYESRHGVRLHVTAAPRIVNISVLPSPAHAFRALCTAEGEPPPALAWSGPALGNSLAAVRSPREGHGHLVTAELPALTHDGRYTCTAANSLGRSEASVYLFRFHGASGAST
As to the kind of experiment: BLI (Octet RED96e), antibody captured on AHC sensor, 30 nM antigen, 1:1 fit; second assay. More on the design: Response value: unit not given here. As to the method: Affinity of Siglec-15 binding protein of the present application to human Siglec-15 (Acro, Cat. No.: SG5-H52H3) was determined using Octet RED96e (Fortebio), both of the antigen and the Siglec-15 binding protein of the present application were diluted with 1×PBST (1×PBS: Sangon, B548117-0500; 0.02% Tween 20: Sigma-aldrich, P1379). The antigen is used at a concentration of 30 nM and the Siglec-15 binding protein of the present application is used at a concentration of 33.3 nM.
First, a sample was added to a 96-well plate (Greiner bio-one, 655209) in a system of 200 μL/well. Software parameters were then set, the plate temperature was set to 30° C., and the frequency at which the standard kinetic signal was collected was 5.0 Hz. Next, the AHC sensor (Fortébio, Cat. No.: 18-0015) was pre-wetted with 1×PBST for 10 min, then the sample was loaded on the machine for detection, with each cycle containing the following steps: 1) immersing the sample in buffer for 60 s; 2) detecting whether the antigen has non-specific binding to the sensor; 3) regenerating in a 10 mM glycine solution at pH 1.7; 4) immersing in buffer for 60 s; 5) immobilizing the Siglec-15 binding protein of the present application on the sensor for 20 s; 6) immersing the sensor in buffer for 180 s; 7) binding the antigen to the Siglec-15 binding protein of the present application for 180 s; 8) dissociating the antigen with Siglec-15 binding protein of the present application for 10 min; and 9) regenerating the sensor.
The equilibrium dissociation constant (KD) of the Siglec-15 binding protein of the present application was calculated by determining the binding rate constant (kon) and dissociation rate constant (kdis) of the antigen-Siglec-15 binding protein of the present application in a 1:1 binding manner using Data Analysis 12.0 software fromx Fortebio.
A general note: In BLI a coated tip is dipped into the sample, and binding shifts an interference pattern.
The Kd is the equilibrium constant for the complex coming apart. Usually koff stands for a measure of how fast the partners let go of each other. One may read the kon as a measure of how fast the partners come together. As to B1, the dissociation constant (Kd) turned out to be 0.00843 nM, the Response value is 0.285, the off-rate (koff) stood at 2.87e-06 s⁻¹ and the kon was determined as 340000 M⁻¹ s⁻¹.
For B2 the same measures were 0.155 nM, 0.262, 6.96e-05 s⁻¹ and 448000 M⁻¹ s⁻¹.
On to B3, for which the Kd amounted to 0.0444 nM, the Response value came out at 0.288, the koff was determined as 1.95e-05 s⁻¹ and the kon is 440000 M⁻¹ s⁻¹.
The like results for B4 were, in that order, 0.0681 nM, 0.305, 3.79e-05 s⁻¹ and 556000 M⁻¹ s⁻¹.
For B5 the same measures were 0.0076 nM, 0.277, 2.57e-06 s⁻¹ and 338000 M⁻¹ s⁻¹.
For B6 the same measures were 0.00508 nM, 0.284, 1.44e-06 s⁻¹ and 282000 M⁻¹ s⁻¹.

For a further assay, the target named is T2, biotinylated human Siglec-15 protein (Acrobiosystems, Cat. No. SG5-H82E9) (human, UniProt Q6ZMC9 20-263, biotinylated).
T2 construct: Bought reagent; also called HS-15 Biotin; human S-15 Biotin
T2 sequence (looked up): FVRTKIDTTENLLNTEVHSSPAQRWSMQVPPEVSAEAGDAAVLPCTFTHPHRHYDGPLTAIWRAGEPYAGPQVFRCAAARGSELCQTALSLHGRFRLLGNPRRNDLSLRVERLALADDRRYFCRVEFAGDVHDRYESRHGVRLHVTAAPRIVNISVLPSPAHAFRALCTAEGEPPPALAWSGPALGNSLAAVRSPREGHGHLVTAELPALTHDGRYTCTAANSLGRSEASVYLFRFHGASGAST
The assay can be described thus: flow cytometry of yeast-displayed Fab, 1 nM HS-15 Biotin 30 min, 2 h wash. How it is done:
After sequencing analysis, the single clone with single sequence was identified by flow cytometry staining, incubated with 1 nM HS-15 Biotin for 30 min, respectively, and washed with 1 mL 1×PBSA for 2 h at room temperature; after flow cytometry analysis, the fluorescence intensity of different clones binding to antigen was compared.
For orientation: A flow cytometer gives signals particle by particle.
As to B7, the “Binding MFI” value came to 52.2 MFI and the “Binding force (Displaying MFI/Binding MFI) *10000” value stood at 219.
Consider B8, for which the “Binding MFI” value stood at 135 MFI and the “Binding force (Displaying MFI/Binding MFI) *10000” value came out at 480.
As to B9, the “Binding MFI” value was found to be 113 MFI and the “Binding force (Displaying MFI/Binding MFI) *10000” value was 455.
The like results for B10 were, in that order, 94.2 MFI and 411.
The like results for B11 were, in that order, 133 MFI and 441.
The like results for B12 were, in that order, 109 MFI and 465.
For B13, the “Binding MFI” value turned out to be 131 MFI and the “Binding force (Displaying MFI/Binding MFI) *10000” value is 289.
For B14 the same measures were 188 MFI and 658.
